Fewer inactive variants are shown than the library holds.
Experiments:
biotinyl-Phe-oxazolone = assay: self-aminoacylation, catalytic enhancement (BFO) (fold over background); higher = more active; k-Seq, kA / k0A0; sequences stand for … in GGGAAUGGAUCCACAUCUACGAAUUC…UUCACUGCAGACUUGACGAAGCUG
Procedure, shortened: (§1)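 Catalytic enhancement equals the median kA over the uncatalyzed rate, the latter read from the low-activity peak of a bimodal Gaussian fit. Values of kA came from fitting each sequence's fraction reacted to a pseudo-first-order model, with 1000 bootstraps. Reacted RNA was captured with streptavidin and quantified by triplicate qPCR and Illumina sequencing after 90 minutes at room temperature with 2–1250 μM biotinyl-aminoacyl-oxazolone and 0.43 μM mutagenized RNA pools bearing a 21-nt variable region.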

biotinyl-Ile-oxazolone = assay: self-aminoacylation, catalytic enhancement (BIO) (fold over background); higher = more active; k-Seq, kA / k0A0; sequences stand for … in GGGAAUGGAUCCACAUCUACGAAUUC…UUCACUGCAGACUUGACGAAGCUG
Procedure, shortened: as §1

biotinyl-Met-oxazolone = assay: self-aminoacylation, catalytic enhancement (BMO) (fold over background); higher = more active; k-Seq, kA / k0A0; sequences stand for … in GGGAAUGGAUCCACAUCUACGAAUUC…UUCACUGCAGACUUGACGAAGCUG
Procedure, shortened: as §1

biotinyl-Val-oxazolone = assay: self-aminoacylation, catalytic enhancement (BVO) (fold over background); higher = more active; k-Seq, kA / k0A0; sequences stand for … in GGGAAUGGAUCCACAUCUACGAAUUC…UUCACUGCAGACUUGACGAAGCUG
Procedure, shortened: as §1

biotinyl-Leu-oxazolone = assay: self-aminoacylation, catalytic enhancement (BLO) (fold over background); higher = more active; k-Seq, kA / k0A0; sequences stand for … in GGGAAUGGAUCCACAUCUACGAAUUC…UUCACUGCAGACUUGACGAAGCUG
Procedure, shortened: as §1

biotinyl-Trp-oxazolone = assay: self-aminoacylation, catalytic enhancement (BWO) (fold over background); higher = more active; k-Seq, kA / k0A0; sequences stand for … in GGGAAUGGAUCCACAUCUACGAAUUC…UUCACUGCAGACUUGACGAAGCUG
Procedure, shortened: as §1

Row | Sequence | self-aminoacylation (biotinyl-Phe-oxazolone) | self-aminoacylation (biotinyl-Ile-oxazolone) | self-aminoacylation (biotinyl-Met-oxazolone) | self-aminoacylation (biotinyl-Val-oxazolone) | self-aminoacylation (biotinyl-Leu-oxazolone) | self-aminoacylation (biotinyl-Trp-oxazolone)
1 | AGUCACCUAGGUCAUCGGGAG [Fam2.2 aminoacylation ribozyme variant] | 1.38 | 1.65 | 1.93 | 1.76 | 1.74 | 2.56
2 | GAAUUUGCUAAUAGUCGCAAG [Fam3.1 aminoacylation ribozyme variant] | 2.52 | 1.81 | 1.51 | 1.53 | 1.38 | 1.79
3 | AUUACCCUGUUCAUCGAGUGG [Fam2.1 aminoacylation ribozyme variant] | 0.962 | 1.08 | 1.03 | 1.29 | 1.25 | 1.48
4 | AAGUUUGCUAAUAUUCGUAAG [Fam3.1 aminoacylation ribozyme variant] | 0.919 | 0.83 | 0.616 | 0.779 | 0.636 | 0.911
5 | AUUACCAUGGUCAACGAGUGA [Fam2.1 aminoacylation ribozyme variant] | 32.6 | 4.28 | 7.33 | 4.12 | 7.89 | 10
6 | AUUCACCUAUGUUAUCGGGUG [Fam2.2 aminoacylation ribozyme variant] | 41.3 | 3.19 | 5.62 | 3.43 | 7.49 | 5.74
7 | AGUCACCCAGGUCAUCGGGUG [Fam2.2 aminoacylation ribozyme variant] | 57.4 | 5.28 | 4.56 | 4.29 | 4.72 | 4.54
8 | AGUUCCCUGGUCAUCGAGUGA [Fam2.1 aminoacylation ribozyme variant] | 43.9 | 4.54 | 7.95 | 5 | 9.8 | 10.9
9 | AUUACCCUGGUGACCGAGUGA [Fam2.1 aminoacylation ribozyme variant] | 66.1 | 4.29 | 9.44 | 4.93 | 11.1 | 12.5
10 | AUUACACUGGGCAUCGAGUGA [Fam2.1 aminoacylation ribozyme variant] | 27.1 | 3.53 | 5.92 | 3.44 | 6.5 | 7.85
11 | AAGAGUGCUAAUAGUCGCAAG [Fam3.1 aminoacylation ribozyme variant] | 3.44 | 2.29 | 1.82 | 1.73 | 2.19 | 1.89
12 | AUGACCCUGGUCAUGGAGUGA [Fam2.1 aminoacylation ribozyme variant] | 26.2 | 2.56 | 4.69 | 2.73 | 4.81 | 4.08
13 | AUUACACUAGUCAUCGAGUGA [Fam2.1 aminoacylation ribozyme variant] | 16.9 | 3.05 | 4.79 | 2.51 | 5.19 | 6.55
14 | AUUCACCUUGGGCAUCGGGUG [Fam2.2 aminoacylation ribozyme variant] | 22.9 | 3.58 | 3.99 | 3.69 | 4.33 | 5.41
15 | AUUGACCUAGGUCAUCGCGUG [Fam2.2 aminoacylation ribozyme variant] | 25 | 3.24 | 4.19 | 3.69 | 5.69 | 5.47
16 | AUUCACCUAGGUGCUCGGGUG [Fam2.2 aminoacylation ribozyme variant] | 31.1 | 3.07 | 3.67 | 3.1 | 4.46 | 3.64
17 | AAGUUUGGUACUAGUCGCAAG [Fam3.1 aminoacylation ribozyme variant] | 2.39 | 1.66 | 2.03 | 1.7 | 1.57 | 1.73
18 | GUUCACGUAGGUCAUCGGGUG [Fam2.2 aminoacylation ribozyme variant] | 30.3 | 3.06 | 4.57 | 4.2 | 4.45 | 5.39
19 | AUUACCCUGUUUAUCGAGUGA [Fam2.1 aminoacylation ribozyme variant] | 62.5 | 5.5 | 12.6 | 6.02 | 12.3 | 15.7
20 | AAUCACGUAGGUCAUCGGGUG [Fam2.2 aminoacylation ribozyme variant] | 30.4 | 3.09 | 3.19 | 3.77 | 4.02 | 4.86
21 | AUUCUCCUAGGUCAUGGGGUG [Fam2.2 aminoacylation ribozyme variant] | 78.8 | 5.81 | 9.56 | 5.64 | 12.5 | 8.92
22 | ACUCACCUAGGUCAUCGGGAG [Fam2.2 aminoacylation ribozyme variant] | 1.04 | 2.33 | 2.48 | 2.08 | 2.28 | 2.46
23 | AUUACCCUGGACAUCGAAUGA [Fam2.1 aminoacylation ribozyme variant] | 0.708 | 1.23 | 0.846 | 0.895 | 0.96 | 0.378
24 | CCACACUUCGAACAAUCGGUC [Fam1B.1 aminoacylation ribozyme variant] | 1.11 | 0.833 | 0.98 | 0.957 | 0.862 | 0.84
25 | AUUACCCAGGGCAUCGAGUGA [Fam2.1 aminoacylation ribozyme variant] | 21.4 | 3.27 | 6.06 | 3.57 | 6.33 | 6.92
26 | CAGUUUGCUAAUAGUGGCAAG [Fam3.1 aminoacylation ribozyme variant] | 0.616 | 0.854 | 1.04 | 0.882 | 0.854 | 0.985

Row | Sequence | self-aminoacylation (biotinyl-Phe-oxazolone) | self-aminoacylation (biotinyl-Ile-oxazolone) | self-aminoacylation (biotinyl-Met-oxazolone) | self-aminoacylation (biotinyl-Val-oxazolone) | self-aminoacylation (biotinyl-Leu-oxazolone) | self-aminoacylation (biotinyl-Trp-oxazolone)
27 | AUUUACCUAGGUCUUCGGGUG [Fam2.2 aminoacylation ribozyme variant] | 24.9 | 2.84 | 4.28 | 3.38 | 4.16 | 3.92
28 | AUUCACAUAGGUCAUCGCGUG [Fam2.2 aminoacylation ribozyme variant] | 108 | 7.23 | 14 | 7.84 | 17.6 | 12.1
29 | AUUUACCUAGGUCAUCGGGUU [Fam2.2 aminoacylation ribozyme variant] | 36.2 | 5.12 | 8.02 | 4.59 | 11.7 | 6.98
30 | AUUCAAGUAGGUCAUCGGGUG [Fam2.2 aminoacylation ribozyme variant] | 36.6 | 3.73 | 5.19 | 3.43 | 7.04 | 5.33
31 | AUACAACUAGGUCAUCGGGUG [Fam2.2 aminoacylation ribozyme variant] | 34.4 | 3.32 | 5.2 | 3.22 | 6.09 | 5.27
32 | CUGCUUCAAACAACCGGUCUG [Fam1A.1 aminoacylation ribozyme variant] | 0.915 | 0.683 | 0.664 | 0.932 | 0.793 | 0.921
33 | AUUACCCUGAUCAUCGAGUCA [Fam2.1 aminoacylation ribozyme variant] | 0.555 | 0.738 | 0.577 | 0.786 | 0.722 | 0.305
34 | AUUGCCCUGGUCAUCGGGUGA [Fam2.1 aminoacylation ribozyme variant] | 317 | 23.1 | 58.1 | 30 | 67.3 | 73.4
35 | CCACACUUCAAACAAUAGGUC [Fam1B.1 aminoacylation ribozyme variant] | 0.995 | 0.617 | 0.435 | 0.656 | 0.471 | 0.652
36 | CUACUUCUAACAAUCAGUCUG [Fam1A.1 aminoacylation ribozyme variant] | 0.82 | 0.663 | 0.524 | 0.689 | 0.603 | 0.502
37 | AUUACUCUGAUCAUCGAGUGA [Fam2.1 aminoacylation ribozyme variant] | 19.3 | 2.93 | 5.85 | 2.95 | 5.35 | 6.7
38 | CUACUUGAAACAAUAGGUCUG [Fam1A.1 aminoacylation ribozyme variant] | 0.837 | 1.06 | 1.09 | 1.05 | 1.13 | 0.841
39 | AAGUUUGCUCAUAGUCGCAAG [Fam3.1 aminoacylation ribozyme variant] | 7.54 | 0.968 | 1.13 | 0.942 | 0.906 | 2.38
40 | AUUACGCUGGGCAUCGAGUGA [Fam2.1 aminoacylation ribozyme variant] | 43.1 | 3.69 | 7.19 | 4 | 7.76 | 6.96
41 | AAGUUUGCUAUUAGUCGCAUG [Fam3.1 aminoacylation ribozyme variant] | 1.98 | 1.01 | 0.953 | 0.79 | 1.21 | 0.858
42 | CUACUUCAAACAAACUGUCUG [Fam1A.1 aminoacylation ribozyme variant] | 0.742 | 0.684 | 0.562 | 0.717 | 0.547 | 0.5
43 | AUCCACCUAGGUCAUCGCGUG [Fam2.2 aminoacylation ribozyme variant] | 88.1 | 7.45 | 8.4 | 7.73 | 13.9 | 8.63
44 | AUUACCCUGGUCAUCGGAUGA [Fam2.1 aminoacylation ribozyme variant] | 0.931 | 1.4 | 1.16 | 1.36 | 1.65 | 1.62
45 | AAGGUUGCUAAUAGUCGCAAG [Fam3.1 aminoacylation ribozyme variant] | 6.56 | 1.32 | 1.29 | 1.23 | 1.25 | 2.64
46 | AAGUUUGCGAAUACUCGCAAG [Fam3.1 aminoacylation ribozyme variant] | 3.35 | 1.36 | 1.13 | 0.993 | 1.4 | 2.24
47 | AUUCACCUAGUUCAACGGGUG [Fam2.2 aminoacylation ribozyme variant] | 17.1 | 1.65 | 2.42 | 1.73 | 2.88 | 2.46
48 | CCACACUUGAAGCAAUCGGAC [Fam1B.1 aminoacylation ribozyme variant] | 0.658 | 0.951 | 0.961 | 1.18 | 0.869 | 0.769
49 | AUACUUCACACAAUCGGUCUG [Fam1A.1 aminoacylation ribozyme variant] | 1.15 | 0.901 | 0.927 | 0.861 | 0.683 | 0.814
50 | CUACGUCAAACACUCGGUCUG [Fam1A.1 aminoacylation ribozyme variant] | 10.9 | 1.85 | 1.6 | 2.18 | 1.83 | 2.65
51 | AUUCACGUAGUUCAUCGGGUG [Fam2.2 aminoacylation ribozyme variant] | 21.9 | 3.07 | 3.49 | 3.45 | 3.88 | 4.72

From the supplement of paper PMC9233669
